Literature values, collected in article PMC7955094.

Biological target: His19 (UniProt position 19, ILSALHFMAWT)
Details: membrane-bound BM2 tetramer, wild type

In the case of “Influenza B virus M2 protein (BM2) proton channel (Influenza B virus (this article's own samples use strain B/Maryland/1/2001; the strain of the quoted pKa study is not stated))”, the pKa is given as 5.1.
